Assay results published in the supplement of paper PMC7125110.
± gives the standard error. For some of these results: Fewer inactive variants are shown than the library holds.

B1: glmS ribozyme (parent)
chain: AUAAAAGCGCCAGAACUACAGAAAUGUAGUUGACGAGGAGGAGGUUUAUCGAAUUUUCGGCGGAUGCCUCCAAA

Key:
Conditions in all cases: with glucosamine-6-phosphate
glucosamine-6-phosphate [1] = variants of: B1; test: kcat; higher = faster cleavage; RNA array
Summary of the method: (§1)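 kobs was derived by fitting per-tile medians to one- or two-exponential decays after normalising signals to baseline and to non-cleaving reference variants. Those signals came from barcoded ribozyme variants transcribed in situ by E. coli RNA polymerase on sequenced MiSeq chips, followed through a hybridised Cy3 probe at 37 °C and imaged over ~14 h. Glucosamine-6-phosphate (40 μM to 10 mM) in HEPES/KCl/Mg(OAc)2 buffer was flowed in. Weighted Michaelis–Menten fits across concentrations then gave kcat and KM.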

glucosamine-6-phosphate [2] = variants of: B1; test: self-cleavage kobs at 40 uM GlcN6P; higher = faster cleavage; RNA array
Summary of the method: as §1

glucosamine-6-phosphate [3] = variants of: B1; test: self-cleavage kobs at 640 uM GlcN6P; higher = faster cleavage; RNA array
Summary of the method: as §1

glucosamine-6-phosphate [4] = variants of: B1; test: self-cleavage kobs at 2500 uM GlcN6P; higher = faster cleavage; RNA array
Summary of the method: as §1

glucosamine-6-phosphate [5] = variants of: B1; test: self-cleavage kobs at 10000 uM GlcN6P; higher = faster cleavage; RNA array
Summary of the method: as §1

glucosamine-6-phosphate [6] = variants of: B1; test: KM; higher = weaker cofactor use; RNA array
Summary of the method: as §1

glucosamine-6-phosphate [7] = variants of: B1; test: self-cleavage kobs at 160 uM GlcN6P; higher = faster cleavage; RNA array
Summary of the method: as §1

Variant | kcat (glucosamine-6-phosphate [1]) | self-cleavage kobs at 40 uM GlcN6P (glucosamine-6-phosphate [2]) | self-cleavage kobs at 640 uM GlcN6P (glucosamine-6-phosphate [3]) | self-cleavage kobs at 2500 uM GlcN6P (glucosamine-6-phosphate [4]) | self-cleavage kobs at 10000 uM GlcN6P (glucosamine-6-phosphate [5]) | KM (glucosamine-6-phosphate [6]) | self-cleavage kobs at 160 uM GlcN6P (glucosamine-6-phosphate [7])
AUAAAAGCGCUUGAACUACAGAAAUGUAGUUGACGAGGAGGAGGUUUAUCGAAUUCUCGGCGGAUGCCUCCAAA [C11U A12U U56C] | 0.00124 ± 0.00036 s⁻¹ | 5.74e-05 ± 1.7e-05 s⁻¹ | 0.000258 ± 5e-05 s⁻¹ | 0.000639 ± 0.00015 s⁻¹ | 0.00106 ± 0.00015 s⁻¹ |  | 
AUAAAAGCGCUCGAACUACAGAAAUGUAGUUGACGAGGAGGAGGUUUAUCGAAUUUUCGGCGGAUGCCUCCAAA [C11U A12C] | 9.58e-05 ± 3.4e-06 s⁻¹ |  | 3.76e-05 ± 7e-06 s⁻¹ | 6.24e-05 ± 1.2e-05 s⁻¹ | 8.81e-05 ± 9e-06 s⁻¹ | 1050 ± 120 µM | 
AUAAAAGCGCUUGAACUACAGAAAUGUAGUUGACGAGGAGGAGGUUUAUCGAAUUUUCGGCGGAUGCCUCCAAA [C11U A12U] | 0.00624 ± 0.00051 s⁻¹ | 0.000179 ± 1.8e-05 s⁻¹ | 0.00209 ± 0.00035 s⁻¹ | 0.00418 ± 0.00075 s⁻¹ | 0.00547 ± 0.00057 s⁻¹ | 1290 ± 150 µM | 0.000886 ± 0.00016 s⁻¹
AUAAAAGCGCUGGAACUACAGAAAUGUAGUUGACGAGGAGGAGGUUUAUCGAAUUUUCGGCGGAUGCCUCCAAA [C11U A12G] | 0.00116 ± 0.00011 s⁻¹ |  | 0.000315 ± 4.3e-05 s⁻¹ | 0.00079 ± 8.1e-05 s⁻¹ | 0.000933 ± 8.4e-05 s⁻¹ | 1760 ± 310 µM | 9.07e-05 ± 1.3e-05 s⁻¹
AUAAAAGCGCGAGAACUACAGAAAUGUAGUUGACGAGGAGGAGGUUUAUCGAAUUUUCGGCGGAUGGCUCCAAA [C11G C67G] | 3.76e-05 ± 1.2e-05 s⁻¹ |  | 5.1e-05 ± 1.3e-05 s⁻¹ |  |  |  | 
AUAAAAGCGCGAGAUCUACAGAAAUGUAGUUGACGAGGAGGAGGUUUAUCGAAAUUUCGGCGGAUGCCUACAAA [C11G A15U U54A C70A] | 3.62e-05 ± 1.5e-05 s⁻¹ |  | 6.28e-05 ± 2.7e-05 s⁻¹ |  |  |  | 
AUAAAAGCGCGAGAACUACAGAAAUGUAGUUGACGAGGAGGAGGUUUGUCGAAUUUUCCGCGGAUGCCUCCAAA [C11G A48G G59C] | 0.000345 ± 1.4e-05 s⁻¹ |  | 8.84e-05 ± 2.1e-05 s⁻¹ | 0.0002 ± 3.7e-05 s⁻¹ | 0.000286 ± 7.5e-05 s⁻¹ | 1870 ± 150 µM | 
AUAAAAGCGCAAGAACUACAGAAAUGUAGUUGACGAGGAGGAGGUUAAUCGAAUUUUCGGCGGAUGCCUCCAAA [C11A U47A] | 8.3e-05 ± 1.6e-05 s⁻¹ |  |  | 5.35e-05 ± 2.1e-05 s⁻¹ | 6.56e-05 ± 1.8e-05 s⁻¹ |  | 
AUAAAAGCGCGAGAACUACAGAAAUGUAGUUGACGAGGAGGAGGUUUAUCGAAUUUUCGGCGGAUGCGUCCAAA [C11G C68G] | 2.12e-05 ± 7.1e-06 s⁻¹ |  |  |  |  |  | 
AUAAAAGCGCGAGAACUACAGAAAUGUAGUUGACGAGGAGGAGGUUUAUCGAAUUUUCAGCGGAUGCCUCCAAA [C11G G59A] | 0.000401 ± 1.7e-05 s⁻¹ |  | 2.81e-05 ± 1e-05 s⁻¹ | 8.92e-05 ± 1.8e-05 s⁻¹ | 0.000215 ± 3.6e-05 s⁻¹ | 8670 ± 560 µM | 
AUAAAAGCGCAAGAACUACAGAAAUGUAGUUGACGAGGAGGAGGUUUAUCGAAUUGUCGGCGGAUGCCUCCAAA [C11A U56G] | 0.00015 ± 3.9e-05 s⁻¹ |  | 6.35e-05 ± 1.2e-05 s⁻¹ | 7.76e-05 ± 1.1e-05 s⁻¹ | 0.000155 ± 1.9e-05 s⁻¹ |  | 
AUAAAAGCGCAAGAACUACAGAAAUGUAGUUGACGAGGAGGAGGUUUAUCGAACUUUCGGCGGAUGCCUCCAAA [C11A U54C] | 0.000278 ± 3.7e-05 s⁻¹ |  | 3.08e-05 ± 1e-05 s⁻¹ | 0.00011 ± 2.9e-05 s⁻¹ | 0.000186 ± 3.4e-05 s⁻¹ | 4640 ± 1100 µM | 
AUAAAAGCGCUUGAACUACAGAAAUGUAGUUAACGAGGAGGAGGUUUAUCGAAUUUUCGGCGGAUGCCUCCAAA [C11U A12U G32A] | 0.000169 ± 4.7e-05 s⁻¹ |  |  | 0.000124 ± 3.5e-05 s⁻¹ | 0.00013 ± 2.5e-05 s⁻¹ |  | 
AUAAAAGCGCAAGAACUACAGAAAUGUAGUUGACGAGGAGGAGGUUUAUCGAAUUUUCGGCGGAUGCCACCAAA [C11A U69A] | 4.95e-05 ± 1.6e-05 s⁻¹ |  | 6.89e-05 ± 2.4e-05 s⁻¹ | 7.69e-05 ± 2.5e-05 s⁻¹ |  |  | 
AUAAAAGCGCAAGAACUACAGAAAUGUAGUUGACGAGGAGGAGGUUUAUCGAAUGUUCGGCGGAUGCCUCCAAA [C11A U55G] | 0.000167 ± 5.3e-05 s⁻¹ |  | 3.28e-05 ± 1.1e-05 s⁻¹ | 0.000159 ± 2.4e-05 s⁻¹ | 0.000125 ± 2.1e-05 s⁻¹ |  | 
AUAAAAGCGCAAGAACUACAGAAAUGUAGUUGACGAGGAGGAGGUUUAUCGAAUAUUCGGCGGAUGCCUCCAAA [C11A U55A] | 0.000149 ± 2.2e-05 s⁻¹ |  | 0.000125 ± 4e-05 s⁻¹ | 0.000203 ± 4.1e-05 s⁻¹ | 0.000135 ± 1.4e-05 s⁻¹ |  | 
AUAAAAGCGCGAGAACUACAGAAAUGUAGUUGACGAGGAGGAGGUUUAUCGAAUUUUCGGCGGAUGCCUUCAAA [C11G C70U] | 1.5e-05 ± 6.7e-07 s⁻¹ |  |  |  |  | 138 ± 61 µM | 
AUAAAAGCGCGAGAACUACAGAAAUGUAGUUGACGAGGAGGAGGUUUAUCGAAUUUUCGGUGGAUGCCUCCAAA [C11G C61U] | < 1e-05 s⁻¹ | < 1e-05 s⁻¹ |  | < 1e-05 s⁻¹ | < 1e-05 s⁻¹ |  | < 1e-05 s⁻¹
AUAAAAGCGCAAGAACUACAGAAAUGUAGUUGACGAGGAGGAGGUUUAUCGAAUUUUCGGCGGAGGCCUCCAAA [C11A U65G] | 3.43e-05 ± 4.3e-07 s⁻¹ | < 1e-05 s⁻¹ | < 1e-05 s⁻¹ |  | 3.18e-05 ± 1.3e-05 s⁻¹ | 777 ± 84 µM | 
